Test results: PMC6854716, “Redesigning N-glycosylation sites in a GH3 β-xylosidase improves the enzymatic efficiency” (Biotechnology for Biofuels, 2019)

B1: BxlB (GH3 β-xylosidase): BxlBN1 (protein)
parent chain: MAVFKSWNLALLSSLFIPALCQSNYPDCTTGPLSELPICDTSLSPLERAKSLVSALTLEEKINNTGHEAAGSSRLGLPAYNWWNEALHGVAEKHGVSFEESGDFSYATSFPAPIVLGAAFNDALIRRVAEIISTEARAFSNSDHAGIDYWTPNVNPFKDPRWGRGQETPGEDPLHCSRYVKEFVGGLQGDDPEKPKVVATCKHLAAYDLEEWGGVSRFEFDAKVSAVDLLEYYLPPFKTCAVDASVGAFMCSYNALNGVPACADRYLLQTVLREHWGWEGPGHWVTGDCGAVERIQTYHHYVESGPEAAAAALNAGVDLDCGTWLPSYLGEAERQGLISNETLDAALTRLYTSLVQLGYFDPAEGQPLRSLGWDDVATSEAEELAKTVAIQGTVLLKNIDWTLPLKANGTLALIGPFINFTTELQSNYAGPAKHIPTMIEAAERLGYNVLTAPGTEVNSTSTDGFDDALAIAAEADALIFFGGIDNTVEEESLDRTRIDWPGNQEELILELAELGRPLTVVQFGGGQVDDSALLASAGVGAIVWAGYPSQAGGAGVFDVLTGKAAPAGRLPITQYPKSYVDEVPMTDMNLQPGTDNPGRTYRWYEDAVLPFGFGLHYTTFNVSWAKKAFGPYDAATLARGKNPSSNIVDTFSLAVTNTGDVASDYVALVFASAPELGAQPAPIKTLVGYSRASLIKPGETRKVDVEVTVAPLTRATEDGRVVLYPGEYTLLVDVNDEYPTAKFEIKGDVQVLEKFPLSGNDSD
B2: BxlB (GH3 β-xylosidase): BxlBN5 (protein)
parent chain: MAVFKSWNLALLSSLFIPALCQSNYPDCTTGPLSELPICDTSLSPLERAKSLVSALTLEEKINNTGHEAAGSSRLGLPAYNWWNEALHGVAEKHGVSFEESGDFSYATSFPAPIVLGAAFNDALIRRVAEIISTEARAFSNSDHAGIDYWTPNVNPFKDPRWGRGQETPGEDPLHCSRYVKEFVGGLQGDDPEKPKVVATCKHLAAYDLEEWGGVSRFEFDAKVSAVDLLEYYLPPFKTCAVDASVGAFMCSYNALNGVPACADRYLLQTVLREHWGWEGPGHWVTGDCGAVERIQTYHHYVESGPEAAAAALNAGVDLDCGTWLPSYLGEAERQGLISNETLDAALTRLYTSLVQLGYFDPAEGQPLRSLGWDDVATSEAEELAKTVAIQGTVLLKNIDWTLPLKANGTLALIGPFINFTTELQSNYAGPAKHIPTMIEAAERLGYNVLTAPGTEVNSTSTDGFDDALAIAAEADALIFFGGIDNTVEEESLDRTRIDWPGNQEELILELAELGRPLTVVQFGGGQVDDSALLASAGVGAIVWAGYPSQAGGAGVFDVLTGKAAPAGRLPITQYPKSYVDEVPMTDMNLQPGTDNPGRTYRWYEDAVLPFGFGLHYTTFNVSWAKKAFGPYDAATLARGKNPSSNIVDTFSLAVTNTGDVASDYVALVFASAPELGAQPAPIKTLVGYSRASLIKPGETRKVDVEVTVAPLTRATEDGRVVLYPGEYTLLVDVNDEYPTAKFEIKGDVQVLEKFPLSGNDSD

Key:
Conditions in all cases: glycan lost; control: BxlBwt
[1] = Michaelis-Menten kinetics, purified enzyme, pH 5.0, 60 °C
[2] = western blot of crude extracellular extract, polyclonal anti-BxlB
[3] = far-UV CD secondary structure
[4] = CD thermal melt, 20-100 °C

| Protein | enzymatic_activity, kcat_Km [1] | expression_or_secretion [2] | structure_or_conformation [3] | stability_or_folding, Tm [4] |
| --- | --- | --- | --- | --- |
| B1 | decreases, 5.13 vs 6.34 | decreases | no change | decreases |
| B2 | decreases, 0.61 vs 6.34 | decreases | no change | decreases |
